Measurements reported in publication PMC11649927.

Columns and labels:
Experiment in all cases: cryo-EM structure; single-particle cryo-EM of S trimers in situ on PFA-fixed, concentrated virions; C3 symmetry for the 3-closed-RBD maps, focused classification for 1-open-RBD trimers
[1] = target: SARS-CoV-2 spike (S) protein of the Mu variant (B.1.621), on virions (SARS-CoV-2)
[2] = target: SARS-CoV-2 spike (S) protein of the Gamma variant (P.1), on virions (SARS-CoV-2)
[3] = target: SARS-CoV-2 spike (S) protein of the B.1 variant (B.1.238), on virions (SARS-CoV-2)
[4] = target: SARS-CoV-2 spike (S) protein of the Delta variant (B.1.617.2), on virions (SARS-CoV-2)
[5] = target: SARS-CoV-2 spike (S) protein of the Alpha variant (B.1.1.7), on virions (SARS-CoV-2)

**Q.** How did the stoichiometry N [1] turn out when “SARS-CoV-2 spike (S) protein of the Mu variant (B.1.621), on virions (natural protein)” was run?
**A.** The stoichiometry N was 3.

**Q.** With “SARS-CoV-2 spike (S) protein of the Gamma variant (P.1), on virions (natural protein)” as the substance, how does the stoichiometry N [2] read?
**A.** Its stoichiometry N is 3.

**Q.** “SARS-CoV-2 spike (S) protein of the B.1 variant (B.1.238), on virions (natural protein)” was tested. Which stoichiometry N [3] did it give?
**A.** The stoichiometry N was 3.

**Q.** For “SARS-CoV-2 spike (S) protein of the Delta variant (B.1.617.2), on virions (natural protein)”, which stoichiometry N [4] is on record?
**A.** The stoichiometry N was 3.

**Q.** Which stoichiometry N [5] does the source give for “SARS-CoV-2 spike (S) protein of the Alpha variant (B.1.1.7), on virions (natural protein)” here?
**A.** Its stoichiometry N is 3.
